Tests used:
[1] = molecular target: human glucagon-like peptide 1 receptor (GLP-1R) (human) (UniProt P43220)
[2] = molecular target: T1, human GLP-2 receptor (hGLP2-R) (human, UniProt O95838)
T1 sequence: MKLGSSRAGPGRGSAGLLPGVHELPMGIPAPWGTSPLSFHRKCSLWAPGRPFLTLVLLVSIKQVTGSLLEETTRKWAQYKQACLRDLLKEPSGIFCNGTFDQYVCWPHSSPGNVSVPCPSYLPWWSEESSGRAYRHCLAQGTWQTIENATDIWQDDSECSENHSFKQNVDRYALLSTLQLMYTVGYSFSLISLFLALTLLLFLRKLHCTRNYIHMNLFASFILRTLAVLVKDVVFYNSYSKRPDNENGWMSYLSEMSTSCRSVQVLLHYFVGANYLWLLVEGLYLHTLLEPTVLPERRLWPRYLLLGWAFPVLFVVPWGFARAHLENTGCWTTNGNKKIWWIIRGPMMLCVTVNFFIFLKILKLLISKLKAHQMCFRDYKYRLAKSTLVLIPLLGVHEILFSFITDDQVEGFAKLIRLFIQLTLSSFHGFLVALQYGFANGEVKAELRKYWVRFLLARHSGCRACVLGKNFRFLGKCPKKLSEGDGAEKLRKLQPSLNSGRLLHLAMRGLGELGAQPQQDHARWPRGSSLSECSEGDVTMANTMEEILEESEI

Substance “Teduglutide (from UniProt P01275) (peptide)” has an EC50 GLP-1 (nM), cAMP AlphaScreen [1] of 39 nM and an EC50 GLP-2 (nM), cAMP AlphaScreen [2] of 0.027 nM.

From patent publication US20250073311A1, “DOSAGE REGIME” (ZEALAND PHARMA A/S, priority 2021, published 2025)
